Values quoted from earlier work, collected in US8278280B2, “Antagonists of the bradykinin B1 receptor” (priority 2003, dated 2012).

Molecular target: T1, B2 receptors (Homo sapiens, UniProt P30411)
T1 sequence (P30411 1-391): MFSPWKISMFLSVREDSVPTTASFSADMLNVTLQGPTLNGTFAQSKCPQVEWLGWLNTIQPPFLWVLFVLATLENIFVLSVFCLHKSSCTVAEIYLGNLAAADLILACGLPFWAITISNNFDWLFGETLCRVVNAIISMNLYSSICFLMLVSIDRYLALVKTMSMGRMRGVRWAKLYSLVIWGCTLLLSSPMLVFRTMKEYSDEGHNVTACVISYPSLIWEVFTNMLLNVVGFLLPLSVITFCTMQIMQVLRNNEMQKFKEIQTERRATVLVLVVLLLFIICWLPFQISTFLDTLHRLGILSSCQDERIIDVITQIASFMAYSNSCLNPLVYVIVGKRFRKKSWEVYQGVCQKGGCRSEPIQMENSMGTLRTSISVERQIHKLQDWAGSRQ

Arg Pro Pro Gly Phe Ser Pro Phe (RPPGFSPF; listed as Homo sapiens) [des-Arg-BK, B1 Agonist]
activity at B2 receptors: inactive
